Test results: PMC5703284 (Proceedings of the National Academy of Sciences of the …, 2017)

Columns and labels:
[1] = molecular target: T1, human ActRIIB-Fc protein (human, UniProt Q13705)
T1 sequence: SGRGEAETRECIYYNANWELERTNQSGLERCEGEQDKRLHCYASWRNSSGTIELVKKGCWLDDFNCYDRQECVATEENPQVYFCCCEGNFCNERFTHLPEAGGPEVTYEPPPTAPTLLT

[2] = molecular target: human ActRIIA-Fc protein (human, UniProt P27037)
Chain of human ActRIIA-Fc protein (P27037 20-135): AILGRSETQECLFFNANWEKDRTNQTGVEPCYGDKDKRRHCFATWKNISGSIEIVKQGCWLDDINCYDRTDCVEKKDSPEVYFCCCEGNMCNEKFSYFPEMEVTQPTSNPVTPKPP

- Kd [1]: 6.5 pM
- Kd [2]: 5.3 pM
B1: activin A (ligand)
chain: GLECDGKVNICCKKQFFVSFKDIGWNDWIIAPSGYHANYCEGECPSHIAGTSGSSLSFHSTVINHYRMRGHSPFANLKSCCVPTKLRPMSMLYYDDGQNIIKKDIQNMIVEECGCS
